Data: the RNAGym collection of RNA variant scans (doi:10.1093/nar/gkz1192)

B1: CPEB3 Ribozyme (parent)
chain: UAACAGGGGGCCACAGCAGAAGCGUUCACGUCGCAGCCCCUGUCAGAUUCUGGUGAAUCUGCGAAUUCUGCUGUAUAUCUC

Variants of: B1
Assay: self-cleavage, relative activity (ratio to wild type); higher = more cleavage; in vitro, sequencing
Method in brief: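 Libraries of CPEB3 self-cleaving ribozyme mutants came from rounds of error-prone PCR and carried barcodes, which DNA sequencing matched to variants. In vitro transcription used T7 RNA polymerase at 37°C for 5 hours, with a further 15 min in DNase I before EDTA stopped the reaction; the ribozymes cleaved during both steps. The RNA was reverse transcribed with template switching and sequenced on Illumina. Relative activity is the cleaved/total read fraction of a variant divided by that of the unmutated ribozyme, averaged over three batches with at least 5 reads.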

| Variant | self-cleavage |
| --- | --- |
| UAACAGGGGGCCACAGCAGAAGCGUACACGUCGCAGCCCCUGUCAGAUUAUGGUGAAUCUGCGAAUUCUGCUGUAUAUCUC [U26A C50A] | 0.76 |
| UAACAGGGGGCCACAGCAGAAGCGUACACGUCGCAGCCCCUGUCAGAUUUUGGUGAAUCUGCGAAUUCUGCUGUAUAUCUC [U26A C50U] | 0.47 |
| UAACAGGGGGCCACAGCAGAAGCGUACACGUCGCAGCUCCUGUCAGAUUCUGGUGAAUCUGCGAAUUCUGCUGUAUAUCUC [U26A C38U] | 0.51 |
| UAACAGGGGGCCACAGCAGAAGCGUACACGUCGCAGCACCUGUCAGAUUCUGGUGAAUCUGCGAAUUCUGCUGUAUAUCUC [U26A C38A] | 0.27 |
| UAACAGGGGGCCACAGCAGAAGCGUACACGUCGCAGCCCCUGUCAGAUUCUGGUGAAUCUGCGAAUUCUGUUGUAUAUCUC [U26A C71U] | 0.24 |
| UAACAGGGGGCCACAGCAGAAGCGUACACGUCGCAGCCCCUGUCAGAUUCUGGUGAAUCUGCGAAUUCUGAUGUAUAUCUC [U26A C71A] | 0.2 |
| UAACAGGGGGCCACAGCAGAAGCGUACACGUCGCAGCCCCUGUCAGAUUCUGGUGAAUCUGCGAAUUUUGCUGUAUAUCUC [U26A C68U] | 0.79 |
| UAACAGGGGGCCACAGCAGAAGCGUACACGUCGCAGCCCCUGUCAGAUUCUGGUGAAUCUGCGAAUUAUGCUGUAUAUCUC [U26A C68A] | 0.31 |
| UAACAGGGGGCCACAGCAGAAGCGUACAGGUCGCAGCCCCUGUCAGAUUCUGGUGAAUCUGCGAAUUCUGCUGUAUAUCUC [U26A C29G] | 0.3 |
| UAACAGGGGGCCACAGCAGAAGCGUACACGUCGCAGCCCCUGUCAGAUUCUGGUGAAUCUGCGAAUUCUGCUGUUUAUCUC [U26A A75U] | 0.9 |
| UAACAGGGGGCCACAGCAGAAGCGUACACGUCGCAGCCCCUGUCAGAUUCUGGUGAAUCUGCGAAUUCUGCUGUGUAUCUC [U26A A75G] | 0.69 |
| UAACAGGGGGCCACAGCAGAAGCGUACACGUCGCAGCCUCUGUCAGAUUCUGGUGAAUCUGCGAAUUCUGCUGUAUAUCUC [U26A C39U] | 0.56 |
| UAACAGGGGGCCACAGCAGAAGCGUACACGUCGCAGCCCCUGUCAGAUUCUGGUGAAUCUGCGUAUUCUGCUGUAUAUCUC [U26A A64U] | 0.27 |
| UAACAGGGGGCCACAGCAGAAGCGUACACGUCGCAGCCCCUGUCAGAUUCUGGUGAAUCUGCGGAUUCUGCUGUAUAUCUC [U26A A64G] | 0.61 |
| UAACAGGGGGCCACAGCAGAAGCGUACACGUCGCAGCCCUUGUCAGAUUCUGGUGAAUCUGCGAAUUCUGCUGUAUAUCUC [U26A C40U] | 0.59 |
| UAACAGGGGGCCACAGCAGAAGCGUACACGUCGCAGCCCGUGUCAGAUUCUGGUGAAUCUGCGAAUUCUGCUGUAUAUCUC [U26A C40G] | 0.17 |
| UAACAGGGGGCCACAGCAGAAGCGUACACGUCGCAGCCCAUGUCAGAUUCUGGUGAAUCUGCGAAUUCUGCUGUAUAUCUC [U26A C40A] | 0.25 |

| Variant | self-cleavage |
| --- | --- |
| UAACAGGGGGCCACAGCAGAAGCGUACACGUAGCAGCCCCUGUCAGAUUCUGGUGAAUCUGCGAAUUCUGCUGUAUAUCUC [U26A C32A] | 0.16 |
| UAACAGGGGGCCACAGCAGAAGCGUACACGUGGCAGCCCCUGUCAGAUUCUGGUGAAUCUGCGAAUUCUGCUGUAUAUCUC [U26A C32G] | 0.13 |
| UAACAGGGGGCCACAGCAGAAGCGUACACGUCGCAGCCCCUGUCAGAUUCUGGUGAAUCUGCGAAUUCUGCUGUAUUUCUC [U26A A77U] | 1.03 |
| UAACAGGGGGCCACAGCAGAAGCGUACACGUCGCAGCCCCUGUCAGAUUCUGGUGAAUCUGCGAAUUCUGCUGUAUGUCUC [U26A A77G] | 0.91 |
| UAACAGGGGGCCACAGCAGAAGCGUACACGUCGCAGCCCCUGUCAGAUUCUGGUGAAUCUGCGAGUUCUGCUGUAUAUCUC [U26A A65G] | 0.38 |
| UAACAGGGGGCCACAGCAGAAGCGUACACGUCGCAGCCCCUGUCAGAUUCUGGUGAAUCUGCGAUUUCUGCUGUAUAUCUC [U26A A65U] | 0.35 |
| UAACAGGGGGCCACAGCAGAAGCGUACACGUCGCAGCCCCUGUUAGAUUCUGGUGAAUCUGCGAAUUCUGCUGUAUAUCUC [U26A C44U] | 0.46 |
| UAACAGGGGGCCACAGCAGAAGCGUACACGUCGCAGCCCCUGUGAGAUUCUGGUGAAUCUGCGAAUUCUGCUGUAUAUCUC [U26A C44G] | 0.94 |
| UAACAGGGGGCCACAGCAGAAGCGUAAACGUCGCAGCCCCUGUCAGAUUCUGGUGAAUCUGCGAAUUCUGCUGUAUAUCUC [U26A C27A] | 0.31 |
| UAACAGGGGGCCACAGCAGAAGCGUAGACGUCGCAGCCCCUGUCAGAUUCUGGUGAAUCUGCGAAUUCUGCUGUAUAUCUC [U26A C27G] | 0.12 |
| UAACAGGGGGCCACAGCAGAAGCGUACACGUCGCAGGCCCUGUCAGAUUCUGGUGAAUCUGCGAAUUCUGCUGUAUAUCUC [U26A C37G] | 0.62 |
| UAACAGGGGGCCACAGCAGAAGCGUACACGUCGCAGUCCCUGUCAGAUUCUGGUGAAUCUGCGAAUUCUGCUGUAUAUCUC [U26A C37U] | 0.5 |
| UAACAGGGGGCCACAGCAGAAGCGUACACGUCGGAGCCCCUGUCAGAUUCUGGUGAAUCUGCGAAUUCUGCUGUAUAUCUC [U26A C34G] | 0.41 |
| UAACAGGGGGCCACAGCAGAAGCGUACACGUCGUAGCCCCUGUCAGAUUCUGGUGAAUCUGCGAAUUCUGCUGUAUAUCUC [U26A C34U] | 0.29 |
| UAACAGGGGGCCACAGCAGAAGCGUACACGUCGCAGCCCCUGUCAGAUUCUGGUGAAUCUGAGAAUUCUGCUGUAUAUCUC [U26A C62A] | 0.25 |
| UAACAGGGGGCCACAGCAGAAGCGUACACGUCGCAGCCCCUGUCAGAUUCUGGUGAAUCUGGGAAUUCUGCUGUAUAUCUC [U26A C62G] | 0.2 |
| UAACAGGGGGCCACAGCAGAAGCGUACACGUCGCAGCCCCUGUCAGAUUCUGGUGAAUCUGUGAAUUCUGCUGUAUAUCUC [U26A C62U] | 0.21 |
